Experimental data as given in patent US20230241168A1 (ALPINE IMMUNE SCIENCES, published 2023).
One block for each molecule: values may come before it. No end group written: not given here.

Tests used:
Test in all cases: cell-based or functional assay
[1] = target: recombinant human APRIL (human) (UniProt O75888); parameters: IC50 APRIL (Δ TACI 30-110-Fc) / IC50 BAFF (Δ TACI 30-110-Fc): unit not given beside the values
[2] = target: recombinant human BAFF (human) (UniProt Q9Y275); parameters: IC50 APRIL (Δ TACI 30-110-Fc) / IC50 BAFF (Δ TACI 30-110-Fc): unit not given beside the values
human CD86 = target: T1, human CD86 (human, UniProt P42081 24-329)
T1 sequence (looked up): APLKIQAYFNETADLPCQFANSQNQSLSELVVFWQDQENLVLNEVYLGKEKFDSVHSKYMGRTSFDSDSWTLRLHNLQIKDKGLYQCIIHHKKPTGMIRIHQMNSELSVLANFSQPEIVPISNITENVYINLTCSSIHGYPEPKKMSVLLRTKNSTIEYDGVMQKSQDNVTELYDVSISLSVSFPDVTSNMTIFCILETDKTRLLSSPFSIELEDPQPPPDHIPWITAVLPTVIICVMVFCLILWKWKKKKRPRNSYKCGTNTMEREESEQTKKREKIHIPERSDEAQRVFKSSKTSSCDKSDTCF

human CD80 = target: T2, human CD80 (human, UniProt P33681 35-288)
T2 sequence (looked up): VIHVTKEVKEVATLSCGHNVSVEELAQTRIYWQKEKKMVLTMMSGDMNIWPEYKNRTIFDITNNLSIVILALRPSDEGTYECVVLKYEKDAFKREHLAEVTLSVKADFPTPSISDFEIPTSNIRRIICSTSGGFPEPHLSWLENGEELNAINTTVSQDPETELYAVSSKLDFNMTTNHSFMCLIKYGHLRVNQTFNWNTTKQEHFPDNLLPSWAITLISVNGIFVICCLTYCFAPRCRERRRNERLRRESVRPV

recombinant human BAFF = recombinant human BAFF (human, UniProt Q9Y275 134-285)
recombinant human APRIL = target: T3, recombinant human APRIL (human, UniProt O75888 105-250, limits assumed)
T3 sequence (looked up): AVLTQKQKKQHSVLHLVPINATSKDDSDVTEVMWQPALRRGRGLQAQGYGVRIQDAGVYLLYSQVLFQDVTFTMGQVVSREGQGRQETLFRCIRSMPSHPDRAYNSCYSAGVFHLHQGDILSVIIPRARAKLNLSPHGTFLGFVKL

IC50 (nM) APRIL [1]: 3850 nM
IC50 APRIL (Δ TACI 30-110-Fc) [1]: 1
IC50 (nM) BAFF [2]: 5770 nM
IC50 BAFF (Δ TACI 30-110-Fc) [2]: 1
Molecule: TACI 30-110-Fc (Fc fusion)

IC50 (nM) APRIL [1]: 9100 nM
IC50 APRIL (Δ TACI 30-110-Fc) [1]: 2.37
IC50 (nM) BAFF [2]: 7700 nM
IC50 BAFF (Δ TACI 30-110-Fc) [2]: 1.33
Molecule: TACI 13-118-Fc (Fc fusion)

CD86 IC50 (human CD86): 9 nM
CD86 IC50 (Δ Parental CTLA-4) (human CD86): 1.1 ratio
CD80 IC50 (human CD80): 82.6 nM
CD80 IC50 (Δ Parental CTLA-4) (human CD80): 2.5 ratio
IC50 (nM) BAFF (recombinant human BAFF): 0.153 nM
IC50 (nM) APRIL (recombinant human APRIL): 2.49 nM
B4: CTLA-4 186 GSG4S Fc (G4S)4 (TACI 542) (Fc fusion)
chain: KAMHVAQPAVVLASSRGIASFVCEYASPWKATEVRVTVLRQADSQVTEVCAATYMMGNELTFLDDSICTGTSSGNQVNLTIQGLRAMDTGLYICKVEQMYPPPYLLGIGNGTQIYVIDPEPCPDSDGSGGGGSEPKSSDKTHTCPPCPAPEAEGAPSVFLFPPKPKDTLMISRTPEVTCVVVDVSHEDPEVKFNWYVDGVEVHNAKTKPREEQYNSTYRVVSVLTVLHQDWLNGKEYKCKVSNKALPAPIEKTISKAKGQPREPQVYTLPPSRDELTKNQVSLTCLVKGFYPSDIAVEWESNGQPENNYKTTPPVLDSDGSFFLYSKLTVDKSRWQQGNVFSCSVMHEALHNHYTQKSLSLSPGGGGGSGGGGSGGGGSGGGGSSLSCRKEEGKFYDHLLQDCISCASICGQHPKQCAYFCENKLRS

The remaining lines, values behind:

B1: CTLA-4 92 GSG4S Fc (G4S)2 BCMA 357 (Fc fusion)
chain: KAMHVAQPAVVLASSRGIASFVCEYASPWKATEVRVTVLRQADSQVTEVCAATYMMGSELTFPDDSICTGTSSGNQVNLTIRGLRAMDTGLYICKVEQMYPPPYLLGIGNGTQIYVIDPEPCPDSDGSGGGGSEPKSSDKTHTCPPCPAPEAEGAPSVFLFPPKPKDTLMISRTPEVTCVVVDVSHEDPEVKFNWYVDGVEVHNAKTKPREEQYNSTYRVVSVLTVLHQDWLNGKEYKCKVSNKALPAPIEKTISKAKGQPREPQVYTLPPSRDELTKNQVSLTCLVKGFYPSDIAVEWESNGQPENNYKTTPPVLDSDGSFFLYSKLTVDKSRWQQGNVFSCSVMHEALHNHYTQKSLSLSPGGGGGSGGGGSLQMAGQCSQNEYFDSLLYACIPCQLRCSSNTPPLTCQRYCNASVTNSVKGTNA
CD86 IC50 (human CD86): 16.1 nM
CD80 IC50 (human CD80): 22.7 nM
IC50 (nM) BAFF (recombinant human BAFF): 6.27 nM
IC50 BAFF (Δ Parental vTD) (recombinant human BAFF): 1.2 ratio
IC50 (nM) APRIL (recombinant human APRIL): 0.683 nM
IC50 APRIL (Δ Parental vTD) (recombinant human APRIL): 1 ratio

B2: 528 TACI CRD2-Fc (Fc fusion, not shown: a dimerising Fc or GST)
chain: SLSCRKEQGKFYDHLLRDCISCASICGQHPKQCAYFCENKLRS
modifications: not fully specified (C-terminus); cysteine pairing not given here; also: Fc fusion, linker and Fc not given here
IC50 (nM) APRIL [1]: 369 nM
IC50 APRIL (Δ TACI 30-110-Fc) [1]: 0.1
IC50 (nM) BAFF [2]: 1330 nM
IC50 BAFF (Δ TACI 30-110-Fc) [2]: 0.23

B3: CTLA-4 92 GSG4S Fc (G4S)3 BCMA 357 (Fc fusion)
chain: KAMHVAQPAVVLASSRGIASFVCEYASPWKATEVRVTVLRQADSQVTEVCAATYMMGSELTFPDDSICTGTSSGNQVNLTIRGLRAMDTGLYICKVEQMYPPPYLLGIGNGTQIYVIDPEPCPDSDGSGGGGSEPKSSDKTHTCPPCPAPEAEGAPSVFLFPPKPKDTLMISRTPEVTCVVVDVSHEDPEVKFNWYVDGVEVHNAKTKPREEQYNSTYRVVSVLTVLHQDWLNGKEYKCKVSNKALPAPIEKTISKAKGQPREPQVYTLPPSRDELTKNQVSLTCLVKGFYPSDIAVEWESNGQPENNYKTTPPVLDSDGSFFLYSKLTVDKSRWQQGNVFSCSVMHEALHNHYTQKSLSLSPGGGGGSGGGGSGGGGSLQMAGQCSQNEYFDSLLYACIPCQLRCSSNTPPLTCQRYCNASVTNSVKGTNA
IC50 (nM) BAFF (recombinant human BAFF): 0.548 nM
IC50 BAFF (Δ Parental vTD) (recombinant human BAFF): 0.6 ratio
IC50 (nM) APRIL (recombinant human APRIL): 0.55 nM
IC50 APRIL (Δ Parental vTD) (recombinant human APRIL): 0.5 ratio
